Data from the supplement of paper PMC7877785.
± gives the uncertainty stated by the source.

Experiment: self-splicing fitness, log relative to wild type (ln ratio); higher = more splicing; Tetrahymena group I intron in knt gene, E. coli kanamycin selection, DiMSum; sequences stand for … in CUCUCU…GGAGGGAAAAGUUAUCAGGCAUGCACCUGGUAGCUAGUCUUUAAACCAAUAGAUUGCAUCGGUUUAAAAGGCAAGACCGUCAAAUUGCGGGAAAGGGGUCAACAGCCGUUCAGUACCAAGUCUCAGGGGAAACUUUGAGAUGGCCUUGCAAAGGGUAUGGUAAUAAGCUGACGGACAUGGUCCUAACCACGCAGCCAAGUCCUAAGUCAACAGAUCUUCUGUUGAUAUGGAUGCAGUUCACAGACUAAAUGUCGGUCGGGGAAGAUGUAUUCUUCUCAUAAGAUAUAGUCGGACCUCUCCUUAAUGGGAGCUAGCGGAUGAAGUGAUGCAACACUGGAGCCGCUGGGAACUAAUUUGUAUGCGAAAGUAUAUUGAUUAGUUUUGGAGUACUCGUGGUCG
Outline: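 A randomised library covering all eight P1ex-region intron nucleotides was built with the intron in the knt kanamycin-resistance gene on pET-22b(+) and held in E. coli BL21(DE3). Cells were grown overnight at 37°C or 30°C on LB agar, with or without 25 μg/mL kanamycin, plus 100 μg/mL carbenicillin, 50 μM IPTG and 0.2% rhamnose, and pooled colonies were amplicon-sequenced on an Illumina HiSeq 2500. DiMSum fitness is the error-weighted combination of wild-type-normalised replicate fold changes, kanamycin versus none.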

Sequence | self-splicing fitness (ln) (30 °C) | self-splicing fitness (ln) (37 °C)
CUUUAGCAAUAUUACGGAAG | -3.17 ± 0.19 | -2.8 ± 0.23
UCUUAGCAAUAUUACGUAAG | -0.27 ± 0.09 | -0.314 ± 0.13
UACUAGCAAUAUUACGCGCA | -0.569 ± 0.071 | 0.207 ± 0.094
GCUCAGCAAUAUUACGACGA | -1.94 ± 0.17 | -1.5 ± 0.18
AGAAAGCAAUAUUACGUUGC | -4 ± 0.13 | -3.36 ± 0.15
AUCCAGCAAUAUUACGUUCA | -1.02 ± 0.068 | -0.265 ± 0.072
AGACAGCAAUAUUACGGAUG | -2.81 ± 0.11 | -2.38 ± 0.17
AAAGAGCAAUAUUACGAGUU | -3 ± 0.17 | -1.92 ± 0.2
AAGAAGCAAUAUUACGGUUA | -0.783 ± 0.15 | -0.983 ± 0.12
CUCAAGCAAUAUUACGCCUC | -2.98 ± 0.14 | -2.97 ± 0.28
AUCGAGCAAUAUUACGAUCC | -2.13 ± 0.46 | 
CACCAGCAAUAUUACGAGCC | -3.37 ± 0.27 | -2.92 ± 0.32
UUUAAGCAAUAUUACGACGG | -0.639 ± 0.11 | 0.382 ± 0.13
GACGAGCAAUAUUACGUGUC |  | -2.74 ± 0.28
AAUGAGCAAUAUUACGUAGU | -3.83 ± 0.22 | -2.22 ± 0.21
GAAGAGCAAUAUUACGUAUG | -3.52 ± 0.23 | -2.16 ± 0.17
CGCCAGCAAUAUUACGCCAC |  | -1.48 ± 0.2
ACGGAGCAAUAUUACGGUAU | -4.48 ± 0.25 | -2.58 ± 0.2
AGCAAGCAAUAUUACGUGUA | -2.19 ± 0.07 | -1.49 ± 0.072
GGGGAGCAAUAUUACGGGGU | -3.23 ± 0.3 | -2.13 ± 0.43
GGUGAGCAAUAUUACGACCA | -1.21 ± 0.25 | -0.616 ± 0.31
AGUGAGCAAUAUUACGUUUU | -3.26 ± 0.14 | -2.57 ± 0.15
AUAAAGCAAUAUUACGUCUC | -1.4 ± 0.093 | -0.541 ± 0.13
CACCAGCAAUAUUACGAACA | -3.14 ± 0.17 | -0.953 ± 0.14
ACCCAGCAAUAUUACGUCUC | -1.89 ± 0.078 | -0.796 ± 0.094

Sequence | self-splicing fitness (ln) (30 °C) | self-splicing fitness (ln) (37 °C)
ACAAAGCAAUAUUACGUAUU | -1.94 ± 0.086 | -1.18 ± 0.11
GUAAAGCAAUAUUACGGUAU | -0.495 ± 0.059 | 0.118 ± 0.084
GUAGAGCAAUAUUACGUAUU | -2.43 ± 0.12 | -1.42 ± 0.13
GGGGAGCAAUAUUACGUUCA | -1.86 ± 0.25 | -1.35 ± 0.19
CACAAGCAAUAUUACGUUGC | -3.28 ± 0.1 | -2.66 ± 0.13
AACCAGCAAUAUUACGUUGC | -3.21 ± 0.12 | -3.05 ± 0.19
GGUAAGCAAUAUUACGGUAA | -1.6 ± 0.17 | -0.53 ± 0.14
UGCCAGCAAUAUUACGAUCA | -0.629 ± 0.099 | 0.465 ± 0.13
CGGUAGCAAUAUUACGCCAG | -0.874 ± 0.092 | -1.03 ± 0.14
AAGAAGCAAUAUUACGGUGU | -1.99 ± 0.072 | -1.65 ± 0.086
UGGGAGCAAUAUUACGCCUA | -2.63 ± 0.44 | -1.75 ± 0.32
AAGCAGCAAUAUUACGAAUU | -0.851 ± 0.069 | 0.12 ± 0.099
AAGAAGCAAUAUUACGGAAG | -2.77 ± 0.094 | -1.68 ± 0.11
CUCCAGCAAUAUUACGGUCG | -0.742 ± 0.054 | -0.679 ± 0.071
AGCGAGCAAUAUUACGGGGU | -3.54 ± 0.22 | -1.59 ± 0.19
AAAGAGCAAUAUUACGCCAC | -3.45 ± 0.49 | -2.83 ± 0.47
GGGUAGCAAUAUUACGUAAG | -1.46 ± 0.14 | -0.429 ± 0.15
CAUUAGCAAUAUUACGGUGC | -4.19 ± 0.31 | -2.34 ± 0.3
AUGGAGCAAUAUUACGGGAU | -3.03 ± 0.22 | -0.546 ± 0.19
UUUAAGCAAUAUUACGGAGU | -3.04 ± 0.39 | -1.18 ± 0.43
CGACAGCAAUAUUACGUAGU | -3.12 ± 0.099 | -2.11 ± 0.12
AAGAAGCAAUAUUACGACUC | 0.456 ± 0.13 | 0.487 ± 0.18
ACAAAGCAAUAUUACGAUAC | -2.89 ± 0.2 | -2.29 ± 0.16
GCCGAGCAAUAUUACGAACU | -2.13 ± 0.3 | -0.52 ± 0.42
UGUCAGCAAUAUUACGGUGA | -0.413 ± 0.094 | -0.355 ± 0.12

Sequence | self-splicing fitness (ln) (30 °C) | self-splicing fitness (ln) (37 °C)
CGUAAGCAAUAUUACGGAGC | -4.17 ± 0.39 | 
GGACAGCAAUAUUACGUUUA | -0.44 ± 0.059 | 0.258 ± 0.077
GUCUAGCAAUAUUACGGGUC | -2.14 ± 0.2 | -1.67 ± 0.17
AGGGAGCAAUAUUACGGGUA | -3.37 ± 0.21 | -2.64 ± 0.17
AUUAAGCAAUAUUACGGCAA | -0.363 ± 0.12 | 0.438 ± 0.15
UGGAAGCAAUAUUACGCUAU | -2.52 ± 0.18 | -2.72 ± 0.29
GAACAGCAAUAUUACGUUUU | -3.06 ± 0.083 | -2.25 ± 0.11
AUCCAGCAAUAUUACGUCGC | -3.25 ± 0.24 | -2.08 ± 0.19
GUGAAGCAAUAUUACGACAU | 0.0507 ± 0.012 | 0.246 ± 0.032
UUAAAGCAAUAUUACGAUAA | 0.359 ± 0.084 | 0.431 ± 0.1
UGGAAGCAAUAUUACGGAUC | -2.47 ± 0.34 | -1.54 ± 0.24
GUCGAGCAAUAUUACGCCUC | -1.51 ± 0.23 | -0.868 ± 0.33
AUCUAGCAAUAUUACGCCAG | -2.77 ± 0.26 | -2.17 ± 0.25
CCUUAGCAAUAUUACGGAGU | -3.24 ± 0.21 | -2.78 ± 0.19
AUACAGCAAUAUUACGGGCA | -0.996 ± 0.099 | -0.765 ± 0.1
CCGCAGCAAUAUUACGAGCC | -3.64 ± 0.23 | -2.09 ± 0.2
AUGAAGCAAUAUUACGGUUG | -0.993 ± 0.11 | -1.49 ± 0.12
GGCUAGCAAUAUUACGAAAU | -1.67 ± 0.22 | 0.0518 ± 0.2
CAGCAGCAAUAUUACGAGCC |  | -1.48 ± 0.23
AGUGAGCAAUAUUACGAGCA | -0.561 ± 0.11 | -0.436 ± 0.11
ACAUAGCAAUAUUACGGAUC | -3.05 ± 0.15 | -1.21 ± 0.12
GCAAAGCAAUAUUACGCAAU | -3.41 ± 0.13 | -1 ± 0.092
UAAAAGCAAUAUUACGAAGA | -2.44 ± 0.11 | -1.12 ± 0.097
UAAAAGCAAUAUUACGGGCC | -1.68 ± 0.2 | -2.04 ± 0.38
UCAGAGCAAUAUUACGACGU | -1.87 ± 0.2 | 0.0812 ± 0.17

Sequence | self-splicing fitness (ln) (30 °C) | self-splicing fitness (ln) (37 °C)
CGAGAGCAAUAUUACGCUGU |  | -3.26 ± 0.38
GGGUAGCAAUAUUACGCUUC | -2.91 ± 0.25 | 
AUCCAGCAAUAUUACGUGAG | -0.052 ± 0.045 | 0.237 ± 0.073
ACAGAGCAAUAUUACGAGGA | -3.04 ± 0.21 | -2.49 ± 0.23
CUCGAGCAAUAUUACGUAGU | -3.91 ± 0.26 | -2.18 ± 0.21
GCUAAGCAAUAUUACGACGA | -0.978 ± 0.088 | -0.529 ± 0.1
AGGAAGCAAUAUUACGAGCA | -1.91 ± 0.17 | -1.7 ± 0.17
GUUUAGCAAUAUUACGAUUC | -0.603 ± 0.098 | 0.273 ± 0.14
GCCAAGCAAUAUUACGGACC | -3.32 ± 0.15 | -0.612 ± 0.13
AACAAGCAAUAUUACGAAUA | -1.97 ± 0.1 | -1.24 ± 0.11
ACUGAGCAAUAUUACGUAUU | -3.29 ± 0.12 | -1.48 ± 0.097
GGCCAGCAAUAUUACGAAGG |  | -2.62 ± 0.33
GGAGAGCAAUAUUACGGUUG | -2.38 ± 0.22 | -2.05 ± 0.38
UGGCAGCAAUAUUACGAUGA | -0.639 ± 0.12 | -0.971 ± 0.14
AUGAAGCAAUAUUACGGUGG | -1.87 ± 0.069 | -1.92 ± 0.12
CAAGAGCAAUAUUACGACUU | -2.96 ± 0.12 | -1.46 ± 0.12
GUGCAGCAAUAUUACGACUC | -0.543 ± 0.13 | 0.542 ± 0.19
UCACAGCAAUAUUACGCAUC | -4.21 ± 0.36 | -3.04 ± 0.4
GCAAAGCAAUAUUACGGUUA | -0.938 ± 0.08 | -0.429 ± 0.076
CACCAGCAAUAUUACGGGCA | -1.29 ± 0.069 | -0.343 ± 0.081
GGACAGCAAUAUUACGUCCG | -2.1 ± 0.12 | -1.89 ± 0.18
UUCCAGCAAUAUUACGCUUG | -2.97 ± 0.21 | -1.94 ± 0.22
